Series [1] deals with the molecule itself. The series is described as follows: small angle X-ray scattering (SAXS); 4–15 mg/ml, 25 mM Tris/HCl pH 7.5, 150 mM NaCl, 290 K; extrapolated to infinite dilution; mass by comparison with bovine serum albumin.
Series [2] concerns the molecule itself. Nature of the series: crystal structure; My11–My13 at 10 mg/ml; 0.1 M MES pH 6, 0.22 M lithium sulfate, 13% PEG 8000; 3.5 Å; molecular replacement with the (My13)2 dimer module of 2R15.

B1: myomesin My9–My13 (residues 1141–1666) (domain or fragment, human, UniProt P52179 1141-1666, looked up)
chain: TKEVVVNVDDDGVISLNFECDKMTPKSEFSWSKDYVSTEDSPRLEVESKGNKTKMTFKDLGMDDLGIYSCDVTDTDGIASSYLIDEEELKRLLALSHEHKFPTVPVKSELAVEILEKGQVRFWMQAEKLSGNAKVNYIFNEKEIFEGPKYKMHIDRNTGIIEMFMEKLQDEDEGTYTFQLQDGKATNHSTVVLVGDVFKKLQKEAEFQRQEWIRKQGPHFVEYLSWEVTGECNVLLKCKVANIKKETHIVWYKDEREISVDEKHDFKDGICTLLITEFSKKDAGIYEVILKDDRGKDKSRLKLVDEAFKELMMEVCKKIALSATDLKIQSTAEGIQLYSFVTYYVEDLKVNWSHNGSAIRYSDRVKTGVTGEQIWLQINEPTPNDKGKYVMELFDGKTGHQKTVDLSGQAYDEAYAEFQRLKQAAIAEKNRARVLGGLPDVVTIQEGKALNLTCNVWGDPPPEVSWLKNEKALASDDHCNLKFEAGRTAYFTINGVSTADSGKYGLVVKNKYGSETSDFTVSVFIP
notes: myomesin (MYOM1), human, Ig domains My9–My13, residues 1141–1666 of MYOM1_HUMAN; Vector pET151/D-TOPO with N-terminal His6 and TEV site; also called C-terminal myomesin filament; My9–My10–My11–My12–(My13)2–My12′–My11′–My10′–My9′; source: E. coli BL21 (DE3) CodonPlus-RP, purified (Ni-NTA, size exclusion chromatography)
For the protein B1, in series [1], the “stoichiometry N” value is 2.

B2: myomesin My11–My13 (residues 1352–1666) (domain or fragment, human, UniProt P52179 1352-1666, looked up)
chain: WIRKQGPHFVEYLSWEVTGECNVLLKCKVANIKKETHIVWYKDEREISVDEKHDFKDGICTLLITEFSKKDAGIYEVILKDDRGKDKSRLKLVDEAFKELMMEVCKKIALSATDLKIQSTAEGIQLYSFVTYYVEDLKVNWSHNGSAIRYSDRVKTGVTGEQIWLQINEPTPNDKGKYVMELFDGKTGHQKTVDLSGQAYDEAYAEFQRLKQAAIAEKNRARVLGGLPDVVTIQEGKALNLTCNVWGDPPPEVSWLKNEKALASDDHCNLKFEAGRTAYFTINGVSTADSGKYGLVVKNKYGSETSDFTVSVFIP
notes: myomesin (MYOM1), human, Ig domains My11–My13, residues 1352–1666 of MYOM1_HUMAN; Vector pET151/D-TOPO with N-terminal His6 and TEV site; also called My11–My13 triplet; source: E. coli BL21 (DE3) CodonPlus-RP, purified (Ni-NTA, size exclusion chromatography)
As for B2, in series [2], the binding result is “binds”.

One may read the stoichiometry N as a count of units in the complex or per binding partner.
